± gives the uncertainty stated by the source.
Experiment: amyloid nucleation score (Sup35N fusion, yeast selection) (log enrichment); library NNK2; higher = more nucleation; inactive = no reads after selection
Procedure, shortened: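 On medium lacking adenine and uracil, psi-negative yeast expressing peptides of 20 random codons fused to Sup35N were grown 7 days at 30°C after a 24-hour induction with 100 μM copper sulfate. Illumina sequencing of input and output plasmid inserts gave the reads, and sequences under 100 input reads were excluded. The nucleation score is the DiMSum log enrichment of output over input reads, centred on the mode score of non-aggregating sequences.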

Substance | amyloid nucleation score
RRGNWKMSFFRMLTVNP | -0.488 ± 0.55
RRIINFQGHREEYGEMHTVM | -0.449 ± 0.64
RRISSKECLYRWGALWYIEI | 0.086 ± 0.61
RRNMVSWVSDDEQFSDKPLA | 0.121 ± 0.4
RRRPRGLEGFAERGLGDWTY | 1.36 ± 0.44
RRSNLGNWFDV | 0.285 ± 1
RRSWCLGFSRDLMSELKGIS | 1.4 ± 0.41
RRTIGASTEKYRLNNFLHVC | -0.661 ± 1.1
RRWTHKEPIKASLVRRFLRV | inactive
RSCYVYRN | inactive
RSGSQENKVSECAQDTTFSV | 0.367 ± 0.54
RSKSCSVVVRL | 0.813 ± 0.43
RSLLRFQ | 0.874 ± 0.14
RSLSSPSRKLKLTNLWI | -0.226 ± 1.1
RSLTCLSVKGNLTHTINVCY | 6.08 ± 0.069
RSLYVVFWIAGFEWGEIRVA | 0.822 ± 0.26
RSSLQSPWGYPKPMWLRSCA | 1.06 ± 0.33
RSSQTPFWEIGSMLLSKMCA | 0.65 ± 0.42
RSSRVEYSCLDGRMRELRGS | -0.443 ± 0.48
RSSWPTLKQGCSKSRQIWRA | 0.182 ± 0.3
RSTLDQRRFGNRF | 0.063 ± 1.1
RSVKDTPCLKLVLMKRDTLK | 0.092 ± 0.54
RSYLIKSLVSSLSARWIMMS | -0.03 ± 0.49
RTCDDA | 0.294 ± 0.8
RTCHGHYFLMM | 0.683 ± 0.74
RTDSGTMMCRVWAMYPESTS | 1.22 ± 0.41

Substance | amyloid nucleation score
RTDVFWNRMQRDSLFKPNAT | 0.192 ± 0.44
RTEMHYARQRHELDVPVWL | 0.25 ± 0.49
RTFLDIIGQTLLYVLVTVLA | 0.548 ± 0.46
RTGRRSAFCTSVRRLNPDCL | 1.17 ± 0.41
RTGSALAHCFCDMQYVAATI | inactive
RTHCSMSYQSRVVVDWLLQK | 4.18 ± 0.087
RTIAVSQWLASHGTVLVWPD | inactive
RTLYGALMIVWVS | 0.004 ± 1.1
RTNVWASDI | -0.32 ± 0.39
RTRDPRIFLSVCTGYTRRYY | -1.28 ± 0.76
RTRLS | 0.559 ± 0.21
RTRTYL | inactive
RTSFRNVMTIMTSPHVVTFI | -0.149 ± 0.4
RTSRVVIKILDPFQFVMLFI | -0.211 ± 0.49
RTTGTLLMRAESALPGRVVN | 5.762 ± 0.055
RTTWPHLVGSRILFYTSHSM | -0.392 ± 0.63
RTVDELTRRWWSKRRMGMSW | 2.03 ± 0.25
RTYILYSDFGCRRCDY | 3.56 ± 0.1
RVDCPYSGNVLTRVGNRCWA | 0.729 ± 0.25
RVGIH | 1.52 ± 0.22
RVIGVWILIAWQRQV | 0.822 ± 0.66
RVKYLDDCQYMLFRWCRMFT | 0.209 ± 0.29
RVLISQGLMYISHTMSG | 5.337 ± 0.044
RVMYGGCFHSRKRASVPYLY | -0.405 ± 0.76
RVNGLKSRVSRVRIGNVS | 0.224 ± 0.23
RVNSIAFI | -0.701 ± 0.56

Substance | amyloid nucleation score
RVPFFVGAG | -0.271 ± 0.74
RVRERIQIYLLLSGQDQFKM | 3.6 ± 0.14
RVRGSSVSISKLNKCKVVDT | 3.33 ± 0.091
RVSSYSQATKKLKHERFGDV | -0.533 ± 0.44
RVTHRQDCMNVLGSRDYFER | -0.574 ± 0.39
RVVCLLKGRWFALVLPDYCR | 0.479 ± 0.8
RVVRGWIAYFW | 0.374 ± 0.44
RWMILSFSLAWVSMSFENNM | 0.784 ± 0.18
RWYSTRCTVEFINATSIVRA | -0.531 ± 1.1
RWYYTRTF | -0.504 ± 1.1
RYFDDWVNSRTVKCGWDWYA | 0.641 ± 0.17
RYGERIFV | 0.627 ± 0.43
RYHDLGI | -0.093 ± 0.2
RYIIL | 0.728 ± 0.62
RYINQ | -0.481 ± 1.1
RYLSTLSVLYRTTSCRA | inactive
RYMCGRGHRCF | 3.04 ± 0.087
RYMKAG | -0.558 ± 0.54
RYNFYRLNLSRAVASDETCV | -0.854 ± 0.34
RYNTYML | -1.33 ± 0.36
RYPVDRLVMSKRCPALRDGG | 0.652 ± 0.23
RYSFSLMGFDSKGNKVGIMS | 3.65 ± 0.06
RYTLRGSGEWLVHDTLGVTD | 0.267 ± 0.5
RYVGRDR | inactive
RYWLLKFNCVLWEISFCRTM | 5.89 ± 0.07
RYYDLTNVVRPHYPCAHGDV | 7.333 ± 0.054

Substance | amyloid nucleation score
RYYGRPFRVLYRWSVREYYT | 4.395 ± 0.04
RYYVSEPLGDFAWFFPGDHR | inactive
SADDL | 0.972 ± 0.39
SAFLRIINACTATFHENSAR | inactive
SAFSFTSLSKYGLFSFCVVR | -0.274 ± 0.63
SAFSVSYTKSAFSARTVDIK | -0.948 ± 0.33
SAGFCFNNCFVFASGDYVNR | 7.493 ± 0.047
SAINIFGALAKCFMVMLALF | inactive
SAIRLMGG | 5.378 ± 0.048
SAPECNLAARVFYLLSPMGM | 0.13 ± 1.1
SAQWGREMVISARHRVPVEL | 4.92 ± 0.079
SAWQRIEWL | -0.339 ± 0.64
SCAHKELCQSVLRDVYWCTL | -0.224 ± 0.79
SCFPM | -1.67 ± 0.62
SCGIVRERFIVFELWSVCSG | -0.147 ± 0.42
SCHLLL | -0.891 ± 1.1
SCHVC | 5.854 ± 0.058
SCLLSL | 0.506 ± 0.45
SCLSGFTIWQVSLRYCASFG | 0.312 ± 0.38
SCPIRTL | 0.424 ± 0.43
SCRVME | 0.292 ± 0.2
SCSDMIKYHHTVELSLVSAT | 0.295 ± 1
SCSTYNDSSVYWFN | 2.04 ± 0.077
SCTDLLYDIDCIHSHECLLL | -0.397 ± 0.35
SCTWRRGFSSQVKYMNRQSI | 0.989 ± 0.13
SCYDVCPLCSHCRIGTKM | 1.92 ± 0.2

Substance | amyloid nucleation score
SCYRIWIMILVIGFSLNRRL | -0.208 ± 0.2
SDAIKWIYL | 0.335 ± 0.29
SDGLGSILIFGPPNY | -0.992 ± 0.3
SDIVNMGEVLVLGDSYWREG | -0.449 ± 0.63
SDLAWGERHLLEGLLVRPTT | 0.508 ± 0.29
SDMYM | -0.324 ± 1.1
SEFPIVQLCIAWDKLCKHLY | -0.179 ± 0.26
SELRTAKPVN | 0.635 ± 0.26
SEMGTVRRYCLRAYRVCVAY | 0.757 ± 0.57
SENFLYLDVVFMCHSMIDRG | 0.131 ± 0.54
SERFDRAY | -1.2 ± 0.42
SEVCNCVGLGSGCDVYGA | 3.17 ± 0.094
SEVGEGSPIDMTLARSGSVF | 0.913 ± 0.81
SEYVDFYGFLGLVFTLRRSA | 0.43 ± 0.64
SFAMSRHLQPGGNEQFRM | 1.16 ± 0.57
SFELFCVWGR | -0.827 ± 0.54
SFGMQTEMYPGSIGLV | inactive
SFIWKLYMLHWNWRSTEEGE | -0.17 ± 0.65
SFLKSMMAPIYKCSVWCSML | -0.819 ± 0.64
SFLTYKARTMSSKLVKSIML | -0.563 ± 0.76
SFMALYLSWFSQRDYAMAGS | 0.639 ± 0.46
SFNEMILHLIPRSCSLKKYI | -0.441 ± 0.28
SFNFEVEWRRASNLSFRWGR | 0.039 ± 0.61
SFNNTHVVPMYLFF | 5.402 ± 0.047
SFPRRMPSD | 2.38 ± 0.071

— the supplement of paper PMC12042874
